The target of the assay is human angiotensin-converting enzyme 2 receptor (hACE2) (human) (UniProt Q9BYF1). In words: SPR.

The text below walks through data of article PMC10246912.

For the substance “S-2P (prefusion-stabilised SARS-CoV-2 spike with K986P and V987P) (domain or fragment)”, the Kd worked out at 0.2 nM.
